Source: PMC10908828

How the values were obtained:
[1] = molecular target: insect HSP90 from Trichoplusia ni (Trichoplusia ni (endogenous in Tni-FNL cells)); assay: mass photometry; purified RAF1-HSP90-CDC37 complex
[2] = molecular target: human full-length RAF1 (residues 1-648) with C-terminal His6 (human) (UniProt P04049); assay: mass photometry; purified RAF1-HSP90-CDC37 complex

In the case of “insect HSP90 from Trichoplusia ni (natural protein)”, the stoichiometry N [1] is reported as 2 and the stoichiometry N [2] is reported as 2.
